The labels stand for the following.
B1: Peroxisome proliferator-activated receptor delta, residues 71 to 145; numbered along this chain, Q03181 (parent)
chain: NMECRVCGDKASGFHYGVHACEGCKGFFRRTIRMKLEYEKCERSCKIQKKNRNKCQYCRFQKCLALGMSHNAIRF

± gives the uncertainty stated by the source.

In this data set the parent is B1. Description: abundance fitness (aPCA) (normalised: wild type 0, dead -1); higher = more abundant; growth selection in yeast, the domain comes from the species named. To be noted: Homo sapiens.
As for Y16A, the abundance fitness is -0.065 ± 0.042.

In the case of Y16L, the abundance fitness was -0.269 ± 0.045.

As to Y16N, the abundance fitness is -0.032 ± 0.069.

Take M2T: the abundance fitness is -0.156 ± 0.052.

For M2W, the abundance fitness is -0.527 ± 0.098.

As for M2E, the abundance fitness was -0.227 ± 0.063.

As to M2K, the abundance fitness was -0.249 ± 0.082.

Regarding M2R, the abundance fitness is -0.417 ± 0.048.

Regarding M2N, the abundance fitness is -0.21 ± 0.09.

With N1G, the abundance fitness is -0.212 ± 0.049.

For the variant N1I, the abundance fitness is 0.16 ± 0.078.

With N1L, the abundance fitness is -0.455 ± 0.084.

For N1H, the abundance fitness is -0.155 ± 0.11.

In the case of N1A, the abundance fitness is -0.179 ± 0.067.

Consider H15Q, for which the abundance fitness was -0.188 ± 0.066.

Regarding H15G, the abundance fitness is -0.285 ± 0.039.

Regarding K49E, the abundance fitness worked out at 0.144 ± 0.15.

On to K49F, for which the abundance fitness was -0.045 ± 0.22.

Take K49L: the abundance fitness was found to be 0.066 ± 0.26.

As to K49M, the abundance fitness was -0.065 ± 0.17.

Regarding C4R, the abundance fitness was -0.558 ± 0.07.

In the case of C4M, the abundance fitness was -0.461 ± 0.11.

For C4E, the abundance fitness is -0.571 ± 0.12.

As for C4K, the abundance fitness was -0.775 ± 0.13.

For the variant C4H, the abundance fitness is -0.576 ± 0.17.

Consider C4Y, for which the abundance fitness is -0.693 ± 0.14.

Consider Y38E, for which the abundance fitness was -0.803 ± 0.11.

With Y38W, the abundance fitness is -0.397 ± 0.061.

Regarding Y38C, the abundance fitness is -0.741 ± 0.15.

On to Y38R, for which the abundance fitness was -0.846 ± 0.075.

As for Y38Q, the abundance fitness is -1.02 ± 0.26.

As for Y38A, the abundance fitness was -0.738 ± 0.079.

Turning to Y38N, the abundance fitness is -0.72 ± 0.23.

For K54F, the abundance fitness came to 0.065 ± 0.072.

K54D: the abundance fitness is -0.02 ± 0.063.

Regarding K54A, the abundance fitness came to 0.009 ± 0.04.

Consider K54H, for which the abundance fitness was -0.059 ± 0.091.

Take K54I: the abundance fitness is -0.031 ± 0.072.

For the variant K54S, the abundance fitness is -0.079 ± 0.043.

As to D9F, the abundance fitness was -0.283 ± 0.082.

In the case of D9T, the abundance fitness was -0.327 ± 0.067.

On to D9S, for which the abundance fitness is -0.178 ± 0.045.

Turning to L36Y, the abundance fitness was -0.047 ± 0.084.

For the variant L36A, the abundance fitness was -0.135 ± 0.042.

Take L36E: the abundance fitness is -0.109 ± 0.055.

L36R: the abundance fitness is -0.26 ± 0.04.

For L36M, the abundance fitness was -0.05 ± 0.058.

In the case of L36H, the abundance fitness was -0.151 ± 0.086.

R5F: the abundance fitness is -0.326 ± 0.091.

Take R5E: the abundance fitness stood at 0.105 ± 0.045.

Consider R5L, for which the abundance fitness is 0.003 ± 0.037.

As to R5T, the abundance fitness was -0.018 ± 0.043.

Consider S44D, for which the abundance fitness amounted to 0.055 ± 0.056.

For S44H, the abundance fitness stood at 0.073 ± 0.065.

As to S44V, the abundance fitness was -0.086 ± 0.039.

Consider S44T, for which the abundance fitness was -0.049 ± 0.05.

Take S44K: the abundance fitness was 0.12 ± 0.051.

Take S44F: the abundance fitness was -0.005 ± 0.074.

S44W: the abundance fitness is -0.314 ± 0.058.

As for S44C, the abundance fitness is -0.164 ± 0.062.

With I47M, the abundance fitness is -0.132 ± 0.044.

Consider I47W, for which the abundance fitness is -0.316 ± 0.034.

Regarding M34P, the abundance fitness was -0.602 ± 0.12.

Take M34S: the abundance fitness was -0.097 ± 0.043.

Regarding M34L, the abundance fitness was determined as 0.006 ± 0.036.

On to M34Q, for which the abundance fitness stood at 0.136 ± 0.056.

Turning to R33M, the abundance fitness was 0.088 ± 0.066.

Take R33C: the abundance fitness was found to be 0.11 ± 0.062.

For the variant R33N, the abundance fitness is 0.082 ± 0.1.

Turning to R33L, the abundance fitness turned out to be 0.089 ± 0.044.

As to R33P, the abundance fitness was -0.972 ± 0.23.

Take R33T: the abundance fitness is 0.129 ± 0.055.

For the variant R33W, the abundance fitness is -0.108 ± 0.061.

For the variant F14H, the abundance fitness was -0.098 ± 0.077.

Regarding F14P, the abundance fitness is -0.14 ± 0.051.

Consider F14N, for which the abundance fitness was -0.066 ± 0.067.

With F14C, the abundance fitness was -0.076 ± 0.059.

Turning to C45P, the abundance fitness is -0.876 ± 0.18.

On to C45T, for which the abundance fitness is -1 ± 0.17.

Consider C45I, for which the abundance fitness was -0.842 ± 0.23.

As for C45S, the abundance fitness was -0.743 ± 0.095.

Take C45M: the abundance fitness was -0.548 ± 0.11.

Take C45R: the abundance fitness was -0.768 ± 0.061.

For F60A, the abundance fitness is -0.941 ± 0.14.

In the case of F60D, the abundance fitness is -0.633 ± 0.19.

In the case of F60K, the abundance fitness was -0.742 ± 0.21.

With F60M, the abundance fitness was -0.073 ± 0.055.

Consider K35M, for which the abundance fitness is -0.079 ± 0.06.

Regarding K35A, the abundance fitness was -0.054 ± 0.042.

In the case of K35H, the abundance fitness was -0.169 ± 0.11.

In the case of K35E, the abundance fitness was determined as 0.063 ± 0.056.

Regarding K35I, the abundance fitness is -0.655 ± 0.19.

Take C63K: the abundance fitness was -0.791 ± 0.14.

As to C63F, the abundance fitness is -0.403 ± 0.095.

For the variant G13S, the abundance fitness is -0.212 ± 0.048.

As for G13Q, the abundance fitness was -0.322 ± 0.077.

Regarding G13W, the abundance fitness is -0.708 ± 0.097.

As to E22L, the abundance fitness was -0.508 ± 0.056.

For E22W, the abundance fitness was -0.425 ± 0.095.

For the variant E22I, the abundance fitness was -0.176 ± 0.087.

E22A: the abundance fitness is -0.256 ± 0.045.

With E22S, the abundance fitness was -0.405 ± 0.052.

R74E: the abundance fitness came to 0.259 ± 0.052.

As to R74Y, the abundance fitness was -0.081 ± 0.14.

For the variant R74F, the abundance fitness stood at 0.049 ± 0.18.

As for R74G, the abundance fitness came out at 0.224 ± 0.038.

As for R74N, the abundance fitness worked out at 0.011 ± 0.15.

In the case of C24V, the abundance fitness was -1.06 ± 0.17.

For the variant C24Q, the abundance fitness was -0.912 ± 0.2.

For the variant C24S, the abundance fitness is -0.809 ± 0.098.

Consider C24F, for which the abundance fitness was -0.364 ± 0.17.

Turning to C24H, the abundance fitness is -0.15 ± 0.16.

Regarding F75V, the abundance fitness worked out at 0.015 ± 0.062.

On to F75D, for which the abundance fitness stood at 0.285 ± 0.09.

For the variant F75W, the abundance fitness is 0.176 ± 0.12.

Regarding F75S, the abundance fitness is 0.216 ± 0.049.

Turning to F75M, the abundance fitness was -0.192 ± 0.12.

In the case of C21A, the abundance fitness is -0.705 ± 0.099.

For C21S, the abundance fitness was -0.867 ± 0.094.

On to C21Q, for which the abundance fitness is -0.763 ± 0.13.

For the variant C21H, the abundance fitness is -0.714 ± 0.17.

With C21I, the abundance fitness is -0.608 ± 0.17.

Take N51H: the abundance fitness is -0.071 ± 0.089.

As for N51A, the abundance fitness is -0.154 ± 0.043.

Regarding N51C, the abundance fitness was -0.451 ± 0.12.

As to N51D, the abundance fitness is 0.086 ± 0.053.

Consider N51S, for which the abundance fitness was -0.052 ± 0.048.

For N51I, the abundance fitness is -0.016 ± 0.1.

Turning to N51E, the abundance fitness stood at 0.055 ± 0.039.

As for N51W, the abundance fitness is -0.408 ± 0.071.

With Q56A, the abundance fitness turned out to be 0.074 ± 0.035.

Take Q56M: the abundance fitness was -0.066 ± 0.062.

Turning to Q56K, the abundance fitness is -0.214 ± 0.063.

Regarding K62S, the abundance fitness is -0.645 ± 0.092.

With K62C, the abundance fitness is -0.543 ± 0.13.

On to K62D, for which the abundance fitness was -0.671 ± 0.15.

Consider K62L, for which the abundance fitness is -0.318 ± 0.051.

With S69W, the abundance fitness is -0.191 ± 0.059.

Take S69A: the abundance fitness is -0.007 ± 0.045.

Take S69D: the abundance fitness came out at 0.147 ± 0.05.

Regarding N53H, the abundance fitness is -0.152 ± 0.099.

Regarding N53W, the abundance fitness was -0.127 ± 0.048.

Turning to N53C, the abundance fitness is -0.274 ± 0.11.

Turning to N53Y, the abundance fitness is -0.249 ± 0.098.

In the case of F28T, the abundance fitness was -0.909 ± 0.18.

Consider F28A, for which the abundance fitness was -0.603 ± 0.075.

Regarding F28S, the abundance fitness was -0.625 ± 0.083.

As to A20E, the abundance fitness is -0.886 ± 0.16.

Regarding A20T, the abundance fitness was -0.057 ± 0.05.

Take A20D: the abundance fitness is -0.99 ± 0.35.

As for A20Q, the abundance fitness was -0.874 ± 0.21.

Take A20P: the abundance fitness was -0.792 ± 0.15.

In the case of A20G, the abundance fitness was -0.847 ± 0.11.

With A20R, the abundance fitness is -0.707 ± 0.11.

In the case of A20I, the abundance fitness was -0.023 ± 0.11.

Regarding A20H, the abundance fitness was -0.594 ± 0.22.

Turning to C55Y, the abundance fitness was -0.676 ± 0.32.

Turning to C55G, the abundance fitness is -0.807 ± 0.057.

Take F27P: the abundance fitness was -0.876 ± 0.14.

On to F27R, for which the abundance fitness is -0.684 ± 0.065.

Consider F27V, for which the abundance fitness was -0.951 ± 0.11.

With V6P, the abundance fitness was -0.923 ± 0.12.

For V6I, the abundance fitness was found to be 0.059 ± 0.069.

For the variant V6S, the abundance fitness was -1.07 ± 0.14.

As for V6L, the abundance fitness is -0.614 ± 0.067.

Consider V6Q, for which the abundance fitness is -0.968 ± 0.2.

Consider V6G, for which the abundance fitness is -0.841 ± 0.079.
